{"source": "patent US20130209454A1", "about": "(CALIFORNIA INSTITUTE OF TECHNOLOGY, published 2013)", "binders": {"B1": {"name": "NIH45-46 IgG (antibody, V domains shown)", "VH": "QVRLSQSGGQMKKPGESMRLSCRASGYEFLNCPINWIRLAPGRRPEWMGWLKPRGGAVNYARKFQGRVTMTRDVYSDTAFLELRSLTSDDTAVYFCTRGKYCTARDYYNWDFEHWGRGAPVTVSS", "VL": "EIVLTQSPATLSLSPGETAIISCRTSQSGSLAWYQQRPGQAPRLVIYSGSTRAAGIPDRFSGSRWGADYNLSISNLESGDFGVYYCQQYEFFGQGTKVQVDI"}, "B2": {"name": "NIH45-46 IgG (antibody, V domains shown)", "VH": "QVRLSQSGGQMKKPGESMRLSCRASGYEFLNCPINWIRLAPGRRPEWMGWLKPRGGAVNYARKFQGRVTMTRDVYSDTAFLELRSLTSDDTAVYFCTRGKYCTARDYYNWDFEHWGRGAPVTVSS", "VL": "EIVLTQSPATLSLSPGETAIISCRTSQSGSLAWYQQRPGQAPRLVIYSGSTRAAGIPDRFSGSRWGADYNLSISNLESGDFGVYYCQQYEFFGQGTKVQVDI"}}, "test_in_all_cases": "cell-based or functional assay", "key": {"[1]": {"biological_target": "HIV-1 Env of strain P1981_C5_3 (HIV-1)"}, "[2]": {"biological_target": "HIV-1 Env of strain TRO.11 (HIV-1)"}, "[3]": {"biological_target": "HIV-1 Env of strain CAP45.2.00.G3 (HIV-1)"}, "[4]": {"biological_target": "HIV-1 Env of strain R2184.c04 (HIV-1)"}, "[5]": {"biological_target": "HIV-1 Env of strain Ce2010_F5 (HIV-1)"}, "[6]": {"biological_target": "HIV-1 Env of strain 0815.v3.c3 (HIV-1)"}, "[7]": {"biological_target": "HIV-1 Env of strain CNE17 (HIV-1)"}, "[8]": {"biological_target": "HIV-1 Env of strain ZM249M.PL1 (HIV-1)"}, "[9]": {"biological_target": "HIV-1 Env of strain TROJO4551.58 (HIV-1)"}, "[10]": {"biological_target": "HIV-1 Env of strain ZM109F.PB4 (HIV-1)"}, "[11]": {"biological_target": "HIV-1 Env of strain 3718.v3.c11 (HIV-1)"}, "[12]": {"biological_target": "HIV-1 Env of strain 1056_10_TA11_1826 (HIV-1)"}, "[13]": {"biological_target": "HIV-1 Env of strain Q23.17 (HIV-1)"}, "[14]": {"biological_target": "HIV-1 Env of strain X1254_c3 (HIV-1)"}, "[15]": {"biological_target": "HIV-1 Env of strain 6545.v4.cl (HIV-1)"}, "[16]": {"biological_target": "HIV-1 Env of strain R1166.c01 (HIV-1)"}, "[17]": {"biological_target": "HIV-1 Env of strain QH0692.42 (HIV-1)"}, "[18]": {"biological_target": "HIV-1 Env of strain CAP210.2.00.E8 (HIV-1)"}, "[19]": {"biological_target": "HIV-1 strain CAP45.2.00.G3 envelope (gp120) (HIV-1)"}, "[20]": {"biological_target": "HIV-1 strain T257-31 envelope (gp120) (HIV-1)"}, "[21]": {"biological_target": "HIV-1 strain AC10.0.29 envelope (gp120) (HIV-1)"}, "[22]": {"biological_target": "HIV-1 strain ZM214M.PL15 envelope (gp120) (HIV-1)"}, "[23]": {"biological_target": "HIV-1 strain QH0692.42 envelope (gp120) (HIV-1)"}, "[24]": {"biological_target": "HIV-1 strain SC422661.8 envelope (gp120) (HIV-1)"}, "[25]": {"biological_target": "HIV-1 strain TRO.11 envelope (gp120) (HIV-1)"}, "[26]": {"biological_target": "HIV-1 strain CAP45.2.00.G3 envelope (gp120) (HIV-1)", "remark": "listed apart in the source"}, "[27]": {"biological_target": "HIV-1 strain P1981_C5_3 envelope (gp120) (HIV-1)"}, "[28]": {"biological_target": "HIV-1 strain AC10.0.29 envelope (gp120) (HIV-1)", "remark": "listed apart in the source"}, "[29]": {"biological_target": "HIV-1 strain C3347.c11 envelope (gp120) (HIV-1)"}, "[30]": {"biological_target": "HIV-1 strain X2131_C1_B5 envelope (gp120) (HIV-1)"}, "[31]": {"biological_target": "HIV-1 strain 3415.v1.c1 envelope (gp120) (HIV-1)"}, "[32]": {"biological_target": "HIV-1 strain QH0692.42 envelope (gp120) (HIV-1)", "remark": "listed apart in the source"}, "[33]": {"biological_target": "HIV-1 strain CNE30 envelope (gp120) (HIV-1)"}, "[34]": {"biological_target": "HIV-1 strain 0815.v3.c3 envelope (gp120) (HIV-1)"}, "[35]": {"biological_target": "HIV-1 strain 3817.v2.c59 envelope (gp120) (HIV-1)"}, "[36]": {"biological_target": "HIV-1 strain REJO4541.67 envelope (gp120) (HIV-1)"}, "[37]": {"biological_target": "HIV-1 strain Ce2010_F5 envelope (gp120) (HIV-1)"}, "[38]": {"biological_target": "HIV-1 strain 89-F1_2_25 envelope (gp120) (HIV-1)"}, "[39]": {"biological_target": "HIV-1 strain 6480.v4.c25 envelope (gp120) (HIV-1)"}, "[40]": {"biological_target": "HIV-1 strain 3103.v3.c10 envelope (gp120) (HIV-1)"}, "[41]": {"biological_target": "HIV-1 strain 1056_10_TA11_1826 envelope (gp120) (HIV-1)"}, "[42]": {"biological_target": "HIV-1 strain THRO4156.18 envelope (gp120) (HIV-1)"}}, "data": [{"binder": "B1", "values": [{"measurement": "neutralization IC50", "setting": "[1]", "value": 0.08, "unit": "µg/mL"}, {"measurement": "neutralization IC50", "setting": "[2]", "value": 1.61, "unit": "µg/mL"}, {"measurement": "neutralization IC50", "setting": "[3]", "value": "> 50", "unit": "µg/mL"}, {"measurement": "neutralization IC50", "setting": "[4]", "value": 0.034, "unit": "µg/mL"}, {"measurement": "neutralization IC50", "setting": "[5]", "value": 0.101, "unit": "µg/mL"}, {"measurement": "neutralization IC50", "setting": "[6]", "value": 0.014, "unit": "µg/mL"}, {"measurement": "neutralization IC50", "setting": "[7]", "value": 0.261, "unit": "µg/mL"}, {"measurement": "neutralization IC50", "setting": "[8]", "value": 0.017, "unit": "µg/mL"}, {"measurement": "neutralization IC50", "setting": "[9]", "value": 0.04, "unit": "µg/mL"}, {"measurement": "neutralization IC50", "setting": "[10]", "value": 0.095, "unit": "µg/mL"}, {"measurement": "neutralization IC50", "setting": "[11]", "value": 19.6, "unit": "µg/mL"}, {"measurement": "neutralization IC50", "setting": "[12]", "value": 0.094, "unit": "µg/mL"}, {"measurement": "neutralization IC50", "setting": "[13]", "value": 0.14, "unit": "µg/mL"}, {"measurement": "neutralization IC50", "setting": "[14]", "value": 0.032, "unit": "µg/mL"}, {"measurement": "neutralization IC50", "setting": "[15]", "value": "> 50", "unit": "µg/mL"}, {"measurement": "neutralization IC50", "setting": "[16]", "value": 0.31, "unit": "µg/mL"}, {"measurement": "neutralization IC50", "setting": "[17]", "value": 0.72, "unit": "µg/mL"}, {"measurement": "neutralization IC50", "setting": "[18]", "value": "> 50", "unit": "µg/mL"}]}, {"binder": "B2", "values": [{"measurement": "neutralization IC50", "setting": "[19]", "value": "> 50", "unit": "µg/mL"}, {"measurement": "neutralization IC50", "setting": "[20]", "value": 0.5, "unit": "µg/mL"}, {"measurement": "neutralization IC50", "setting": "[21]", "value": 0.9, "unit": "µg/mL"}, {"measurement": "neutralization IC50", "setting": "[22]", "value": 0.5, "unit": "µg/mL"}, {"measurement": "neutralization IC50", "setting": "[23]", "value": 0.7, "unit": "µg/mL"}, {"measurement": "neutralization IC50", "setting": "[24]", "value": 0.05, "unit": "µg/mL"}, {"measurement": "neutralization IC50", "setting": "[25]", "value": 1.9, "unit": "µg/mL"}, {"measurement": "neutralization IC80", "setting": "[26]", "value": "> 50", "unit": "µg/mL"}, {"measurement": "neutralization IC80", "setting": "[27]", "value": 0.24, "unit": "µg/mL"}, {"measurement": "neutralization IC80", "setting": "[28]", "value": 1.93, "unit": "µg/mL"}, {"measurement": "neutralization IC80", "setting": "[29]", "value": 0.094, "unit": "µg/mL"}, {"measurement": "neutralization IC80", "setting": "[30]", "value": 0.88, "unit": "µg/mL"}, {"measurement": "neutralization IC80", "setting": "[31]", "value": 0.086, "unit": "µg/mL"}, {"measurement": "neutralization IC80", "setting": "[32]", "value": 1.71, "unit": "µg/mL"}, {"measurement": "neutralization IC80", "setting": "[33]", "value": 1.07, "unit": "µg/mL"}, {"measurement": "neutralization IC80", "setting": "[34]", "value": 0.052, "unit": "µg/mL"}, {"measurement": "neutralization IC80", "setting": "[35]", "value": "> 50", "unit": "µg/mL"}, {"measurement": "neutralization IC80", "setting": "[36]", "value": 0.035, "unit": "µg/mL"}, {"measurement": "neutralization IC80", "setting": "[37]", "value": 0.357, "unit": "µg/mL"}, {"measurement": "neutralization IC80", "setting": "[38]", "value": "> 50", "unit": "µg/mL"}, {"measurement": "neutralization IC80", "setting": "[39]", "value": 0.1, "unit": "µg/mL"}, {"measurement": "neutralization IC80", "setting": "[40]", "value": 6.15, "unit": "µg/mL"}, {"measurement": "neutralization IC80", "setting": "[41]", "value": 0.447, "unit": "µg/mL"}, {"measurement": "neutralization IC80", "setting": "[42]", "value": 8.22, "unit": "µg/mL"}]}]}
